According to publication PMC3079743:

Test system: TRF2DBD+L
Test: differential centrifugation
Conditions: self-association; agarose gel binding detected at 10-fold lower concentration; EMSA buffer composition not in the material (AFM incubations: without Mg2+ and KCl, 30 min, room temperature); strand insertion assay: 50 mM HEPES, 100 mM …

## pRST5 2 kb telomeric fragment, histone-free (Tel DNA)
  binding signal (% sedimented at up to 1 uM): 20
